Publication PMC12270161

Experiments:
P03420 = assay: SEC; Superdex 200 Increase 10/300 GL, antigens (40 ug) in PBS; percent of total antigen in aggregate, trimer and monomer fractions by area under the curve
[1] = molecular target: RSV F DsCav1 (pre-fusion stabilised comparator with foldon) (respiratory syncytial virus (RSV) | bacteriophage T4) (UniProt P03420); assay: as above
[2] = as above
[3] = molecular target: hMPV F DsCavEs2 (pre-fusion stabilised comparator with foldon) (human metapneumovirus (hMPV) | bacteriophage T4); assay: as above
[4] = molecular target: hMPV Fsol (non-stabilised soluble hMPV F, post-fusion control) (human metapneumovirus (hMPV)); assay: as above

Substance: RSV F DsCav1 (pre-fusion stabilised comparator with foldon)
- percent trimer (SEC, area under curve) (P03420): RSV DSCav1, 69% trimer

Substance: RSV F DsCav1 (pre-fusion stabilised comparator with foldon) (from UniProt P03420 26-524)
- stoichiometry N [1]: 3

Substance: hMPV F DsCavEs2 (pre-fusion stabilised comparator with foldon)
- percent trimer (SEC, area under curve) [2]: hMPV DSCavEs2, 54% trimer
- stoichiometry N [3]: 3

Substance: hMPV Fsol (non-stabilised soluble hMPV F, post-fusion control)
- percent trimer (SEC, area under curve) [2]: hMPV Fsol, 25% aggregate, 19% trimer, 56% monomer

Substance: hMPV Fsol (non-stabilised soluble hMPV F, post-fusion control) (domain or fragment)
- stoichiometry N [4]: 3
